Source: patent US20250361282A1 (Bayer, published 2025)

T1: rat NPR-A (rat, UniProt P18910 29-1057)
T1 sequence (looked up): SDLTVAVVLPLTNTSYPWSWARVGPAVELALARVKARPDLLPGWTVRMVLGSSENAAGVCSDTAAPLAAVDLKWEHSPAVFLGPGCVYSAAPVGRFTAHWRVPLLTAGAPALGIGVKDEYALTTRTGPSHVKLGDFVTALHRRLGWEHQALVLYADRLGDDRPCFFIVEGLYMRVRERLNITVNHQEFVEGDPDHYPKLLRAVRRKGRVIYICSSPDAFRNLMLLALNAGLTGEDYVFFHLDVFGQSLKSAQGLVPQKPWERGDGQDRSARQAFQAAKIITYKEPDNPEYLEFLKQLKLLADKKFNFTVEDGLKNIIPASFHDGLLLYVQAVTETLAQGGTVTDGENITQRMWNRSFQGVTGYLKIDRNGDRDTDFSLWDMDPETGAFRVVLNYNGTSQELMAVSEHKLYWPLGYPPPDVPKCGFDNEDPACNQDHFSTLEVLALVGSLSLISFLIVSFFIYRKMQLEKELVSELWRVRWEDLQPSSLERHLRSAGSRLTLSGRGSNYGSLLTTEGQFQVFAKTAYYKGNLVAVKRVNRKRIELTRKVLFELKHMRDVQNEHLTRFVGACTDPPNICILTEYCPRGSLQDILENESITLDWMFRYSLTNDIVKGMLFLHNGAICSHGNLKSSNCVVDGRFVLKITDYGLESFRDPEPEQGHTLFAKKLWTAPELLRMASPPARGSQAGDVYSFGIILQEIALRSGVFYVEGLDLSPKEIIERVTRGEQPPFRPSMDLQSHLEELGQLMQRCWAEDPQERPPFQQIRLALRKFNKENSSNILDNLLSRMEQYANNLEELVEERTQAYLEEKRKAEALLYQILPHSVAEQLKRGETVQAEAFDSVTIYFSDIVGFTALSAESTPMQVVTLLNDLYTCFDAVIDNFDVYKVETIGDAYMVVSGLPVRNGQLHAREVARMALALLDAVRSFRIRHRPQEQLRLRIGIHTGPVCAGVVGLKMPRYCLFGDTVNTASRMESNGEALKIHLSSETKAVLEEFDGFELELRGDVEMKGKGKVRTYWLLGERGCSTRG


molecular target: T1, rat NPR-A; assay: cell-based or functional assay

Binder | EC50, fluorescence signal of rat NPR-A / CNGA2 (cGMP biosensor) / GCaMP6 CHO reporter cells | EC50 on rNPRA reporter cells
TPP-10992 (antibody, human IgG4 S228P, lambda) heavy: not shown light: QSVLTQPPSVSGAPGQRVTISCTGSSSNIGAGYDVHWYQQLPGTAPKLLIYGNSNRPSGVPDRFSGSKSGTSASLAITGLQAEDEADYYCQSYDSSLSGVVFGGGTKLTVLGQPKAAPSVTLFPPSSEELQANKATLVCLISDFYPGAVTVAWKADSSPVKAGVETTTPSKQSNNKYAASSYLSLTPEQWKSHRSYSCQVTHEGSTVEKTVAPTECS | 180 nM | 
TPP-9902 (antibody) heavy: not shown light: QSVLTQPPSVSGAPGQRVTISCTGSSSNIGAGYDVHWYQQLPGTAPKLLIYGNSNRPSGVPDRFSGSKSGTSASLAITGLQAEDEADYYCQSYDSSLSGVVFGGGTKLTVLGQPKAAPSVTLFPPSSEELQANKATLVCLISDFYPGAVTVAWKADSSPVKAGVETTTPSKQSNNKYAASSYLSLTPEQWKSHRSYSCQVTHEGSTVEKTVAPTECS | 2300 nM | > 1000 nM
TPP-11153 (antibody, V domains shown) VH: EVQLLESGGGLVQPGGSLRLSCAASGFTFSSYAMSWVRQAPGKGLEWVSAISGSGGSTYYADSVKGRFTISRDNSKNTLYLQMNSLRAEDTAVYYCTSVHQETKKYQSSPDGGSGGSGGGSYSYTYNYEWHVDVWGQGTLVTVSS VL: QSVLTQPPSVSGAPGQRVTISCTGSSSNIGAGYDVHWYQQLPGTAPKLLIYGNSNRPSGVPDRFSGSKSGTSASLAITGLQAEDEADYYCQSYDSSLSGVVFGGGTKLTVLG | > 1900 nM | > 1000 nM

Other lines, results leading:

EC50, fluorescence signal of rat NPR-A / CNGA2 (cGMP biosensor) / GCaMP6 CHO reporter cells | EC50 on rNPRA reporter cells | Binder
11 nM | < 20 nM | TPP-11157 (antibody, V domains shown) VH: GFTFSSYAMSWVRQAPGKGLEWVSAISGSVVVTSHQAPGGGSGGGEKKKLKSLAYGSTYYADSVKGRFTISRDNSKNTLYLQMNSLRAEDTAVYYCAKLTGAEYFQHWGQGTLVTVSS VL: QSVLTQPPSVSGAPGQRVTISCTGSSSNIGAGYDVHWYQQLPGTAPKLLIYGNSNRPSGVPDRFSGSKSGTSASLAITGLQAEDEADYYCQSYDSSLSGVVFGGGTKLTVLG
7 nM | < 20 nM | TPP-11154 (antibody, V domains shown) VH: EVQLLESGGGLVQPGGSLRLSCAASGFTFSSYAMSWVRQAPGKGLEWVSAISGSGGSTYYADSVKGRFTISRDNSKNTLYLQMNSLRAEDTAVYYCTSVHQETKKYQSSPDGGSGGGSYSYTYNYEWHVDVWGQGTLVTVSS VL: QSVLTQPPSVSGAPGQRVTISCTGSSSNIGAGYDVHWYQQLPGTAPKLLIYGNSNRPSGVPDRFSGSKSGTSASLAITGLQAEDEADYYCQSYDSSLSGVVFGGGTKLTVLG
12 nM | < 20 nM | TPP-11155 (antibody, V domains shown) VH: EVQLLESGGGLVQPGGSLRLSCAASGFTFSSYAMSWVRQAPGKGLEWVSAISGSGGSTYYADSVKGRFTISRDNSKNTLYLQMNSLRAEDTAVYYCTSVHQETKKYQSSPDGGSYSYTYNYEWHVDVWGQGTLVTVSS VL: QSVLTQPPSVSGAPGQRVTISCTGSSSNIGAGYDVHWYQQLPGTAPKLLIYGNSNRPSGVPDRFSGSKSGTSASLAITGLQAEDEADYYCQSYDSSLSGVVFGGGTKLTVLG
